Experimental data: patent US20210388084A1 (JJP BIOLOGICS SP Z O O, published 2021)
Residue numbers refer to the chain shown, from its start. In names and notes the source's numbering stands. Blank lines part the entries; values can stand above or below the binder they belong to.

Key:
[1] = target: T1, membrane-bound full-length human CD89 (human, UniProt P24071 22-287); assay: FACS, HEK293F-huCD89, half-maximum binding
T1 construct: on stably or transiently transfected HEK293F cells; also called FcalphaRI; huCD89
Experimental: Then, 10 μL/tube (ie, 0.1×10⁶ cells) of these cells were incubated with or without 100 μL titrated (in PBS/BSA/NaN₃) purified chimeric mouse/human anti-human CD89 antibody/tube for 30 minutes at 4° C. […] After extensive washing in PBS/BSA/NaN₃, cells were subsequently incubated with 1:200 diluted PE-conjugated goat anti-human IgG Fey-specific antibodies (Jackson ImmunoResearch) for 30 minutes at 4° C. After extensive washing in PBS/BSA/NaN₃, cells were fixed in 2% formaldehyde in PBS/BSA/NaN₃ for 30 minutes at 4° C.

[2] = target: T2, recombinant C-terminal polyhistidine-tagged human (extracellular) CD89 (human, UniProt P24071 22-227); assay: ELISA, coated rhuCD89, half-maximum binding
T2 construct: extracellular domain; bought (Sino Biological); also called rhuCD89
Experimental: After extensive washing with PBS/0.05% Tween 20, plates were blocked with PBS/0.05% Tween 20/1% BSA (Roche) for 1 hour at RT. Subsequently, plates were incubated with 50 μL titrated (in block buffer) purified mouse anti-human CD89 antibody/well for 1 hour at RT. […] After extensive washing in PBS/0.05% Tween 20, binding of antibodies on rhuCD89 was determined with 1:5,000 diluted horseradish peroxidase (HRP)-conjugated goat anti-mouse IgG Fey-specific antibodies (Jackson ImmunoResearch) for 1 hour at RT, followed by a ready-to-use solution of TMB substrate (Invitrogen) for colorimetric detection.
After extensive washing with PBS/0.05% Tween 20, plates were blocked with PBS/0.05% Tween 20/1% BSA (Roche) for 1 hour at RT. Subsequently, plates were incubated with and without 50 μL titrated (in block buffer) purified chimeric mouse/human anti-human CD89 antibody/well for 1 hour at RT. After extensive washing in PBS/0.05% Tween 20, binding of antibodies on rhuCD89 was determined with 1:5,000 diluted horseradish peroxidase (HRP)-conjugated goat anti-human IgG Fey-specific antibodies (Jackson ImmunoResearch) for 1 hour at RT, followed by a ready-to-use solution of TMB substrate (Invitrogen) for colorimetric detection.

[3] = target: T1, membrane-bound full-length human CD89; assay: FACS, HEK293F-huCD89, 4C +NaN3, IgA then Ab 10 ug/mL; pre-bound heat-aggr serum IgA
Experimental: (§1) After extensive washing in PBS/BSA/NaN₃, 1:200 diluted PE-conjugated streptavidin (Jackson ImmunoResearch) was added, and incubated for 30 minutes at 4° C. After extensive washing in PBS/BSA/NaN₃, cells were fixed in 2% formaldehyde in PBS/BSA/NaN₃ for 30 minutes at 4° C.

[4] = target: T1, membrane-bound full-length human CD89; assay: FACS, HEK293F-huCD89, 24 h 37C no NaN3, Ab 10 ug/mL then IgA; competitor heat-aggr serum IgA
Experimental: as §1

[5] = target: T1, membrane-bound full-length human CD89; assay: FACS, HEK293F-huCD89, 4C +NaN3, Ab 10 ug/mL then IgA; competitor non-aggr serum IgA
Experimental: Then, 10 μL/tube (ie, 0.1×10⁶ cells) of these cells were incubated with or without 50 μL purified mouse anti-human CD89 antibody at 20 μg/mL (in PBS/BSA/NaN₃) for 30 minutes at 4° C. […] After extensive washing in PBS/BSA/NaN₃, 1:200 diluted PE-conjugated streptavidin (Jackson ImmunoResearch) was added, and incubated for 30 minutes at 4° C. After extensive washing in PBS/BSA/NaN₃, cells were fixed in 2% formaldehyde in PBS/BSA/NaN₃ for 30 minutes at 4° C.

[6] = target: T1, membrane-bound full-length human CD89; assay: FACS, HEK293F-huCD89, 24 h 37C no NaN3, IgA then Ab 10 ug/mL; pre-bound non-aggr serum IgA
Experimental: as §1

[7] = target: T1, membrane-bound full-length human CD89; assay: FACS, HEK293F-huCD89, 24 h 37C no NaN3, Ab 10 ug/mL then IgA; competitor non-aggr serum IgA
Experimental: as §1

[8] = target: T1, membrane-bound full-length human CD89; assay: FACS, HEK293F-huCD89, unlabeled Ab 10 ug/mL first; competitor MIP8a-PE
Experimental: Then, 10 μL/tube (ie, 0.1×10⁶ cells) of these cells were incubated with or without 100 μL purified mouse anti-human CD89 antibody at 10 μg/mL (in PBS/BSA/NaN₃) for 30 minutes at 4° C. […] After extensive washing in PBS/BSA/NaN₃, cells were fixed in 2% formaldehyde in PBS/BSA/NaN₃ for 30 minutes at 4° C.

[9] = target: T1, membrane-bound full-length human CD89; assay: FACS, HEK293F-huCD89, 4C +NaN3, IgA then Ab 10 ug/mL; pre-bound non-aggr serum IgA
Experimental: After this (ie, without washing), 50 μL purified mouse anti-human CD89 antibody at 20 μg/mL (in PBS/BSA/NaN₃) was added to these cells, and incubated for another 30 minutes at 4° C. […] After extensive washing in PBS/BSA/NaN₃, 1:200 diluted PE-conjugated streptavidin (Jackson ImmunoResearch) was added, and incubated for 30 minutes at 4° C. After extensive washing in PBS/BSA/NaN₃, cells were fixed in 2% formaldehyde in PBS/BSA/NaN₃ for 30 minutes at 4° C.

[10] = target: T1, membrane-bound full-length human CD89; assay: FACS, HEK293F-huCD89, 4C +NaN3, Ab 10 ug/mL then IgA; competitor heat-aggr serum IgA
Experimental: To mimic human IgA immune complexes, human (serum-derived) IgA (Bethyl Laboratories) was heated at 63° C. for 30 minutes, and cooled down to RT followed by centrifugation at 4° C. 12000×g for 2 minutes to remove any insoluble protein precipitation.
Then, 10 μL/tube (ie, 0.1×10⁶ cells) of these cells were incubated with or without 50 μL purified mouse anti-human CD89 antibody at 20 μg/mL (in PBS/BSA/NaN₃) for 30 minutes at 4° C.

[11] = target: T1, membrane-bound full-length human CD89; assay: FACS, HEK293F-huCD89, 24 h 37C no NaN3, IgA then Ab 10 ug/mL; pre-bound heat-aggr serum IgA
Experimental: as §1

[12] = target: T3, chimeric bovine EC1-Fcγ2R/human EC2-CD89 (bovine/human chimera); assay: FACS, transiently transfected HEK293F
T3 chain: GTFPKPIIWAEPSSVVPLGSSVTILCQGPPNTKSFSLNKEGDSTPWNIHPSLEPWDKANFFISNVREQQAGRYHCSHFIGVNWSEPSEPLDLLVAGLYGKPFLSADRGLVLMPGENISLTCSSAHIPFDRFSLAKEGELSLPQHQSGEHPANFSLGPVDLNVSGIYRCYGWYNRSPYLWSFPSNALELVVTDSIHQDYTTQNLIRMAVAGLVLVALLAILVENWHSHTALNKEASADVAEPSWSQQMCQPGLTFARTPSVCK
Experimental: After 48 hours and/or 72 hours, the binding of CD89/IgA blocking mouse anti-human CD89 antibodies to aforementioned chimeric human/bovine receptors on transfected cells was analyzed by FACS analysis. To this end, transient transfected HEK293F cells were put at 10×10⁶ cells/mL in ice-chilled phosphate-buffered saline containing 0.1% BSA (Sigma)/0.05% NaN₃ (PBS/BSA/NaN₃) supplemented with 50 μg/mL human IgGs (blocking Fcγ receptors; Sigma) for 10 minutes at 4° C. Then, 10 μL/tube (ie, 0.1×10⁶ cells) of these cells were incubated with or without 100 μL purified mouse anti-human CD89 antibody at 10 μg/mL (in PBS/BSA/NaN₃) for 30 minutes at 4° C. […] After extensive washing in PBS/BSA/NaN₃, cells were subsequently incubated with 1:200 diluted PE-conjugated goat anti-mouse IgG Fey-specific antibodies (Jackson ImmunoResearch) for 30 minutes at 4° C. After extensive washing in PBS/BSA/NaN₃, cells were fixed in 2% formaldehyde in PBS/BSA/NaN₃ for 30 minutes at 4° C.

[13] = target: T4, chimeric human/cynomolgus monkey CD89-III (human/cynomolgus monkey chimera, UniProt P24071 22-287); assay: FACS, transiently transfected HEK293F, 10 ug/mL; ++ strong, + intermediate, -/+ weak
T4 construct: also called ΔGly72-Gly96 human EC1-CD89; III (72-96)
T4 chain: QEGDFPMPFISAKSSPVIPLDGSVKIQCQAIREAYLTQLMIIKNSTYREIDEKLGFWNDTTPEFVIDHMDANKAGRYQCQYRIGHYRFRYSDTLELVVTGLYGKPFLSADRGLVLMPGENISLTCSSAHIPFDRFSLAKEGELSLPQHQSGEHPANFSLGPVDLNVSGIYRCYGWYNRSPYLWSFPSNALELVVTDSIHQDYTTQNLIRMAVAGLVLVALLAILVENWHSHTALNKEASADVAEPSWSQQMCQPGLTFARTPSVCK
Experimental: (§2) After 48 hours, the binding of CD89/IgA blocking mouse anti-human CD89 antibodies to aforementioned chimeric human CD89/cynomolgus monkey CD89 constructs on transfected cells was analyzed by FACS analysis. To this end, transient transfected HEK293F cells were put at 10×10⁶ cells/mL in ice-chilled phosphate-buffered saline containing 0.1% BSA (Sigma)/0.05% NaN₃ (PBS/BSA/NaN₃) supplemented with 50 μg/mL human IgGs (blocking Fcγ receptors; Sigma) for 10 minutes at 4° C. Then, 10 μL/tube (ie, 0.1×10⁶ cells) of these cells were incubated with or without 100 μL purified mouse anti-human CD89 antibody at 10 μg/mL (in PBS/BSA/NaN₃) for 30 minutes at 4° C. […] After extensive washing in PBS/BSA/NaN₃, cells were subsequently incubated with 1:200 diluted PE-conjugated goat anti-mouse IgG Fey-specific antibodies (Jackson ImmunoResearch) for 30 minutes at 4° C. After extensive washing in PBS/BSA/NaN₃, cells were fixed in 2% formaldehyde in PBS/BSA/NaN₃ for 30 minutes at 4° C.

[14] = target: T5, chimeric human/cynomolgus monkey CD89-I (human/cynomolgus monkey chimera, UniProt P24071 22-287); assay: as above
T5 construct: also called ΔGln22-Lys46 human EC1-CD89; I (22-46)
T5 chain: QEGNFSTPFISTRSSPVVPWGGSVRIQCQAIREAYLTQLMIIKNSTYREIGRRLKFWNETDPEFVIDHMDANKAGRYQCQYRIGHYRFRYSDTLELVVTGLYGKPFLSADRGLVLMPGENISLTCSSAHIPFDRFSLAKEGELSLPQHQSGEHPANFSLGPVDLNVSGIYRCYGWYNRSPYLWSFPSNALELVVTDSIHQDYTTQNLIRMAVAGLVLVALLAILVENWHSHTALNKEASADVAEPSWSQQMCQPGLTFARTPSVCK
Experimental: as §2

[15] = target: T6, chimeric human/cynomolgus monkey CD89-II (human/cynomolgus monkey chimera, UniProt P24071 22-287); assay: as above
T6 construct: also called ΔIle47-Ile71 human EC1-CD89; II (47-71)
T6 chain: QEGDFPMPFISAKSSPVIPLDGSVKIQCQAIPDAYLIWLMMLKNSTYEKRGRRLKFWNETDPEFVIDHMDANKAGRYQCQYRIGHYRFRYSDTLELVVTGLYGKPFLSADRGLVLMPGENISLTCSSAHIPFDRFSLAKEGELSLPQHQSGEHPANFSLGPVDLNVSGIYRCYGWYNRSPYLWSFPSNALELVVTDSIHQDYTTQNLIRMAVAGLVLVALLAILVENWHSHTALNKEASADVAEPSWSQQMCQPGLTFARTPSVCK
Experimental: as §2

[16] = target: T7, chimeric human/cynomolgus monkey CD89-hotspots (human/cynomolgus monkey chimera, UniProt P24071 22-287); assay: as above
T7 construct: also called ΔThr58, Gln59; ΔArg73, Arg74, Lys76
T7 chain: T4 chain with T37I, Q38W, D51G, D59E, T61D, H85L, Y86S
Experimental: as §2

[17] = target: T8, membrane full-length cynomolgus monkey CD89 (cynomolgus monkey); assay: FACS, transiently transfected HEK293F; - = no binding
T8 construct: also called cynoCD89; cynomolgus EC1-CD89
T8 chain: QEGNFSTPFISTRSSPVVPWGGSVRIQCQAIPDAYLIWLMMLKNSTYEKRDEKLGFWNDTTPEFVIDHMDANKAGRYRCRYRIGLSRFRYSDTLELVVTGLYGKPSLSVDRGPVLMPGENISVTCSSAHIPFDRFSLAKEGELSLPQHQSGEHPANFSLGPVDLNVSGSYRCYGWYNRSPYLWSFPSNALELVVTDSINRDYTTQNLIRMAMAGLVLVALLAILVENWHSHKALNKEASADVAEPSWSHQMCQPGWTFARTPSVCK

percent IgA binding [3]: 0 to 25%
percent IgA binding (remaining) [4]: 0 to 25%
percent IgA binding [5]: 0 to 25%
percent IgA binding (remaining) [6]: 0 to 25%
percent IgA binding (remaining) [7]: 0 to 25%
% blocking of MIP8a-PE binding [8]: > 90%
percent IgA binding [9]: 0 to 25%
percent IgA binding [10]: 0 to 25%
percent IgA binding (remaining) [11]: 0 to 25%
B3: mouse anti-human CD89-specific antibody 9H7 (antibody, mouse IgG1, V domains shown)
VH: QIQLVQSGPELKKPGETVKISCKASGYTFKNYGMNWVKQAPGKGLKWMAWINTYTGEPTHTDDFKGRFVFSLETSASTAYLQINNLKNEDTATYFCARWGLGTTEEAARDYWGQGTTLTVSS
VL: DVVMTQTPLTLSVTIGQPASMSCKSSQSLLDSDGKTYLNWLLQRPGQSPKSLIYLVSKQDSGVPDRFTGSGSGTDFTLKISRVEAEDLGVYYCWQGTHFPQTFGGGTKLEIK

percent IgA binding [3]: 0 to 25%
binding result [12]: no binding (tested: 10 µg/mL)
binding result [13]: binds
binding result [14]: binds
binding result [15]: binds
binding result [16]: binds
binding result [17]: no binding (tested: 10 µg/mL)
percent IgA binding (remaining) [4]: 0 to 25%
percent IgA binding [5]: 0 to 25%
percent IgA binding (remaining) [6]: 0 to 25%
percent IgA binding (remaining) [7]: 0 to 25%
% blocking of MIP8a-PE binding [8]: > 90%
percent IgA binding [9]: 0 to 25%
percent IgA binding [10]: 0 to 25%
percent IgA binding (remaining) [11]: 0 to 25%
B4: mouse anti-human CD89-specific antibody 26D6 (antibody, mouse IgG1, V domains shown)
VH: QIQLVQSGPELKKPGETVKISCKASGYTLTKYGMNWVKQAPGKGLKWMGWINTYTGEPTYADDFKGRFAFSLETSASTAYLQINNLKNEDTATYFCASLPLFGRDSFAYWGQGTLVTVSA
VL: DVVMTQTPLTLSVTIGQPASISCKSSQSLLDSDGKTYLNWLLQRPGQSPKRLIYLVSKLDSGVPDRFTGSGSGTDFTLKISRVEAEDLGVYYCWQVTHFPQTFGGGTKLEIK
notes: printed as 26B6 in some paragraphs; also called 26B6

More lines, now with the values behind:

B1: chimeric mouse/human anti-human CD89 antibody 16D6 (antibody, human IgG4 S228P, kappa)
heavy: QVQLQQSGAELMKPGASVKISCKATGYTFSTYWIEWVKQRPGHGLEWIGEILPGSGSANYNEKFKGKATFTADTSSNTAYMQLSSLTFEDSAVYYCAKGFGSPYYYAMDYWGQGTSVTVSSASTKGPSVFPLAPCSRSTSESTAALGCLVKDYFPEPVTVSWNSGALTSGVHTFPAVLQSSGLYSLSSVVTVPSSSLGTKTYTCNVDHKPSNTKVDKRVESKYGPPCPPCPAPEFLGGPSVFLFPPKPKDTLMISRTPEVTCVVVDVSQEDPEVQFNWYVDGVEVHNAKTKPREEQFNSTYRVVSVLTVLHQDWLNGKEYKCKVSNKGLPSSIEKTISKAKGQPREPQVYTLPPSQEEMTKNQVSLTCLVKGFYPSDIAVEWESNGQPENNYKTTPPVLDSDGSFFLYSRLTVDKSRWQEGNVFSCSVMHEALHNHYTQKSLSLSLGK
light: EIVLTQSPALMAASPGEKVTITCSVSSSISSSNLHWYQQKSETSPKPWIYGTSKLASGVPVRFSGSGSGTSYSLTISNMEAEDAATYYCQQWSSFPLTFGGGTKLEIKRTVAAPSVFIFPPSDEQLKSGTASVVCLLNNFYPREAKVQWKVDNALQSGNSQESVTEQDSKDSTYSLSSTLTLSKADYEKHKVYACEVTHQGLSSPVTKSFNRGEC
notes: mouse V regions on stabilized (S239P) human IgG4/kappa; also called chimeric 16D6; 16D16; copies: 2 + 2
EC50 [1]: 1.79 µg/mL
EC50 [2]: 0.108 µg/mL

B2: chimeric mouse/human anti-human CD89 antibody 8F3 (antibody, human IgG4 S228P, kappa)
heavy: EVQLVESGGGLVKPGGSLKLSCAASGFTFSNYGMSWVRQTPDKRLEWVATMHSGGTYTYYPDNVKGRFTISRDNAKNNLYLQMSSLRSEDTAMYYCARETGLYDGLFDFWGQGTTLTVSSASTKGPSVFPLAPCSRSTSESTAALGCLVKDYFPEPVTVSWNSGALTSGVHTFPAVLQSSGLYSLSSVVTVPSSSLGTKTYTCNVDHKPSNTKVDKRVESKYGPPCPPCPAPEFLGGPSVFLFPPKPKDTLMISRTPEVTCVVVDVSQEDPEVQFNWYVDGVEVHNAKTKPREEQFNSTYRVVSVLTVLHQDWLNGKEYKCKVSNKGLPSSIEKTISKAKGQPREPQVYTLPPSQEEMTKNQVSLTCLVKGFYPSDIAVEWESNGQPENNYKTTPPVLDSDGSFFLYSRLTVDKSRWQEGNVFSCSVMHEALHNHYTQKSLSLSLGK
light: DVQITQSPSYLAASPGETITINCRASKTISKYLAWYQEKPGKTNMLLIYSGSTLQSGVPSRFSGSGSGTDFTLTISSLEPEDLAMYYCQQHDEYPWTFGGGTKLEIKRTVAAPSVFIFPPSDEQLKSGTASVVCLLNNFYPREAKVQWKVDNALQSGNSQESVTEQDSKDSTYSLSSTLTLSKADYEKHKVYACEVTHQGLSSPVTKSFNRGEC
notes: mouse V regions on stabilized (S239P) human IgG4/kappa; also called chimeric 8F3; copies: 2 + 2
EC50 [1]: 1.32 µg/mL
EC50 [2]: 0.031 µg/mL

B5: chimeric mouse/human anti-human CD89 antibody 10E7 (antibody, human IgG4 S228P, kappa)
heavy: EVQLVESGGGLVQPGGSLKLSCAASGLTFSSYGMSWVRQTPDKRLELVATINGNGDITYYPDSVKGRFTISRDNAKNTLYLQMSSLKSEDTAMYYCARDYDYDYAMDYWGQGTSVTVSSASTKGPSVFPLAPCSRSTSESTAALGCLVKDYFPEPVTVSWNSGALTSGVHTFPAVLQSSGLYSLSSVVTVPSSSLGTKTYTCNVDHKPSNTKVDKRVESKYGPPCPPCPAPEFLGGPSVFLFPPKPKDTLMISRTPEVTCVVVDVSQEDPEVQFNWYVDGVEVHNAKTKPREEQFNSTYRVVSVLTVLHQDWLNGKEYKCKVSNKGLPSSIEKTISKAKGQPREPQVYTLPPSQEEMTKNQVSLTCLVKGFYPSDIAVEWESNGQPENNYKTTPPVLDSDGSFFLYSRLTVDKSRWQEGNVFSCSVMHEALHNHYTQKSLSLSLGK
light: DIQMTQSTSSLSASLGDSVTISCRASQDIINYLNWYQQKPDGTVKLLIYYTSRLHSGVPSRFSGSGSGTEYSLTVSNLEKEDIATYFCQQGKTLPYTFGGGTKLEIKRTVAAPSVFIFPPSDEQLKSGTASVVCLLNNFYPREAKVQWKVDNALQSGNSQESVTEQDSKDSTYSLSSTLTLSKADYEKHKVYACEVTHQGLSSPVTKSFNRGEC
notes: mouse V regions on stabilized (S239P) human IgG4/kappa; also called chimeric 10E7; copies: 2 + 2
EC50 [1]: 1.25 µg/mL
EC50 [2]: 0.016 µg/mL

B6: chimeric mouse/human anti-human CD89 antibody 20B4 (antibody, human IgG4 S228P, kappa)
heavy: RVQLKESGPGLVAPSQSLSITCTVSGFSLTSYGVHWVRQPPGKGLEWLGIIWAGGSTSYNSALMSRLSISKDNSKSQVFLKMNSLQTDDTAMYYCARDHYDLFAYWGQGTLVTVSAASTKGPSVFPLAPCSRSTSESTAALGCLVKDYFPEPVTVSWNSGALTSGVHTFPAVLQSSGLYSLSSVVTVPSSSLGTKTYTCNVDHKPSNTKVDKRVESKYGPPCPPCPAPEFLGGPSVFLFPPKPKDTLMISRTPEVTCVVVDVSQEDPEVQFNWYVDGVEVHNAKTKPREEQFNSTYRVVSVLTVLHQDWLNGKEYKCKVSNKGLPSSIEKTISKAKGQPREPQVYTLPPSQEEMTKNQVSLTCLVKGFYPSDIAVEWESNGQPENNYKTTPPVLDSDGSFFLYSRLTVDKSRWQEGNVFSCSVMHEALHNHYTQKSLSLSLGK
light: DILMTQSPSSMSVSLGDTVSITCHASQDISRNIGWLQQKPGKSFKGLIYHGTNLEDGVPSRFSGSGSGADYSLTISSLESEDFADYYCVQYAQFPRTFGGGTKLEIKRTVAAPSVFIFPPSDEQLKSGTASVVCLLNNFYPREAKVQWKVDNALQSGNSQESVTEQDSKDSTYSLSSTLTLSKADYEKHKVYACEVTHQGLSSPVTKSFNRGEC
notes: mouse V regions on stabilized (S239P) human IgG4/kappa; also called chimeric 20B4; copies: 2 + 2
EC50 [1]: 0.296 µg/mL
EC50 [2]: 0.009 µg/mL
